# Data taken from paper PMC6728143, “Distinct mechanisms of microRNA sorting into cancer cell-derived extracellular vesicle subtypes”.
# T1: Lupus La protein (La) (Homo sapiens, UniProt P05455 1-408)
# T1 sequence: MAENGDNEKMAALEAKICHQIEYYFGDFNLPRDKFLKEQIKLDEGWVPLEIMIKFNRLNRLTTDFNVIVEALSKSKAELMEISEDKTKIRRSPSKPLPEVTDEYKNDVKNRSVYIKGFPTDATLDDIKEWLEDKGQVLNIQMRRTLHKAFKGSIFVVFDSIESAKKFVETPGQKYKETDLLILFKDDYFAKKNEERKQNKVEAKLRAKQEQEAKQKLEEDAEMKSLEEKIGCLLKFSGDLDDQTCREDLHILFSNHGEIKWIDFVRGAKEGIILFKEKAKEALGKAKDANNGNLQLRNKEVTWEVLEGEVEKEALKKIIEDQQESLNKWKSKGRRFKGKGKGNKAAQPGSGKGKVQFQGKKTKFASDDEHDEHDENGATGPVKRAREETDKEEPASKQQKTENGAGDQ
# B1: miR-122 5'mut (ssRNA)
# RNA: ACACGUGUGACAAUGGUGUUUG
# B2: miR-122-5p WT (ssRNA)
# RNA: UGGAGUGUGACAAUGGUGUUUG
# B3: miR-122 3'mut (ssRNA)
# RNA: UGGAGUGUGACAAUGGUGAAAG
# Columns and labels:
# [1] = target: T1, Lupus La protein (La); assay: EMSA; EMSA: 1 nM RNA, La 250 pM-2 uM; 25 mM Tris pH 8, 100 mM KCl, 1.5 mM MgCl2, 0.2 mM EGTA, 0.05% NP-40, 50 ug/ml heparin; 30 C 30 min, then ice 10 min; 6% gel at 4 C; Hill fit; settings: protein: recombinant; tags: N-terminal 6xHis; label: 5' IRDye800CW
# [2] = target: T1, Lupus La protein (La); assay: as above; settings: protein: recombinant; tags: N-terminal 6xHis; label: 5' IRDye800CW; remark: listed apart in the source
Binder,binding signal [1],Kd [2] [nM]
B1,~10 fold lower affinity than WT,
B2,,4.8
B3,,538
